From publication PMC3947560 come the findings set out here.

This data set addresses ETV1 (ER81) 249-477 (UniProt P50549 249-477). The experiment in a line: EMSA.

ETV1 (ER81) 249-477, sequence (P50549 249-477): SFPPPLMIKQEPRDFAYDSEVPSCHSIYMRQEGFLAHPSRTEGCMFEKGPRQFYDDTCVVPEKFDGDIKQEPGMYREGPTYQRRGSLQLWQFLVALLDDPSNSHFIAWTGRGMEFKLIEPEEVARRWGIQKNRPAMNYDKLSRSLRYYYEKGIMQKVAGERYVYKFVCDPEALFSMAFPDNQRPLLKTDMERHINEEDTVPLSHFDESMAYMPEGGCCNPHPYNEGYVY

B1: ETS8/9 (PSA enhancer) (dsDNA)
DNA 1: CTTTACAAACATCCTTGAAACAACAATCCAGAA
DNA 2: TTCTGGATTGTTGTTTCAAGGATGTTTGTAA
On to B1, for which the binding result is listed as “binds”.
